Experimental findings from patent publication US20260167721A1 (ABLEXIS, published 2026) are described below.

The target of experiment [1] is T1, recombinant human CD3 epsilon/delta heterodimer (human, UniProt P07766 23-126; P04234 22-105).
T1 construct: Recombinant protein in solution (200-50 nM) in the Octet assay; also called hCD3 E/D; human CD3E/D
The experiment is described as follows: Octet BLI, mAb on FAB2G sensor, hCD3 E/D 200-50 nM; R^2 0.99.

For experiment [2], the target named is T2, recombinant human CD3 epsilon/gamma heterodimer (human, UniProt P07766 23-126; P09693 23-116).
T2 construct: Recombinant protein in solution (200-50 nM) in the Octet assay; also called hCD3 E/G
In words: Octet BLI, mAb on FAB2G sensor, hCD3 E/G 200-50 nM; R^2 0.98. For orientation: In BLI a coated tip is dipped into the sample, and binding shifts an interference pattern.

Experiment [3] addresses T3, human CD3 (TCR/CD3 complex on the cell surface) (human, UniProt P07766 23-207; P04234 22-171; P09693 23-182).
T3 construct: whole, on cells; Native CD3 on human Pan-T cells or Jurkat wild-type cells; also called CD3 on Pan-T cells; CD3 on Jurkat WT cells
In words: flow cytometry, Pan-T cells, 1 ug/mL. (In general: In flow cytometry, cells or beads pass a laser one at a time.)

The target in experiment [4] is T3, human CD3 (TCR/CD3 complex on the cell …). The experiment is described as follows: flow cytometry, Pan-T cells, 10 ug/mL.
The target is the same in experiment [5]. The experiment is described as follows: flow cytometry, Jurkat WT cells, 1 ug/mL.
For experiment [6] the target is unchanged. In words: flow cytometry, Jurkat WT cells, 10 ug/mL.
Experiment [7] shares this target. The experiment is described as follows: flow cytometry, Jurkat WT gMFI over Jurkat KO gMFI, 1 ug/mL.
Experiment [8] shares this target. The experiment is described as follows: flow cytometry, Jurkat WT gMFI over Jurkat KO gMFI, 10 ug/mL.

T3 sequence (P07766 23-207, chain 1 of 3): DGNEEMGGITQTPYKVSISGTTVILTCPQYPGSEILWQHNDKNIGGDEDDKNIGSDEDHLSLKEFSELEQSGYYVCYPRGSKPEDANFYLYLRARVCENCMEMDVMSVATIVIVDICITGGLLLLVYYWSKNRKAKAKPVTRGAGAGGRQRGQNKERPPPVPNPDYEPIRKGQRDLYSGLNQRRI
T3 sequence (P04234 22-171, chain 2 of 3): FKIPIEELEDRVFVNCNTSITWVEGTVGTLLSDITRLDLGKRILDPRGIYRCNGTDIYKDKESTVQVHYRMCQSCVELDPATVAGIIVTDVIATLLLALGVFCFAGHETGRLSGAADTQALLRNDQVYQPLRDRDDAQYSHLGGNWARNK
T3 sequence (P09693 23-182, chain 3 of 3): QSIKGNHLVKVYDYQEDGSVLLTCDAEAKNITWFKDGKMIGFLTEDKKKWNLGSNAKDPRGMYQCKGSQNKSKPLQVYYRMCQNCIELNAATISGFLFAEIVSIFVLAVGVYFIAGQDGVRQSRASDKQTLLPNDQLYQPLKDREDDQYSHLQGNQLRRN
T2 sequence (P07766 23-126, chain 1 of 2): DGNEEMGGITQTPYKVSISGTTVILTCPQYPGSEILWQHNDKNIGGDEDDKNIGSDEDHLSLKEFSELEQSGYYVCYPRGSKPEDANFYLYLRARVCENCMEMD
T2 sequence (P09693 23-116, chain 2 of 2): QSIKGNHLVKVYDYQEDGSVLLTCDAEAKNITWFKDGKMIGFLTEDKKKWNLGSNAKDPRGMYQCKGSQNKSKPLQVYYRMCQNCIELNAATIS
T1 sequence (P07766 23-126, stated change not applied, chain 1 of 2): as the sequence (P07766 23-126, chain 1 of 2) above
T1 sequence (P04234 22-105, stated change not applied, chain 2 of 2): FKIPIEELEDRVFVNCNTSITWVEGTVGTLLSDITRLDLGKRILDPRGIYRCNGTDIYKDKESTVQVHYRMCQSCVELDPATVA

B1: ABL-CD3-46 (antibody, V domains shown)
VH: EVQLVESGGGLVKPGGSLRLSCSASGFTFSTYTMNWVRQAPGKGLDWVSSISKSSTYIYYADSVKGRFTISRDNAKNSLYLQMNSLRAEDTAVYYCARERRTLAFDIWGQGTMVTVSS
VL: NFMLTQPHSVSESPGKTVTISCTRSSGSIASNYVQWYQQRPGSSPTTVIYEDNQRPSGVPDRFSGSIDSSSNSASLTISGLKTEDEADYYCQCYDRSNRVFGGGTKLTVL
notes: Chimeric hybridoma mAb: human V, CH1, upper hinge; mouse middle hinge, CH2, CH3
B1: in experiment [1], the dissociation constant (Kd) (usually the concentration at which binding is half-saturated) was determined as 9.48 nM; the Response turned out to be 1.02; the koff (commonly a measure of how fast the partners let go of each other) worked out at 0.00171 s⁻¹; the on-rate constant (kon) – broadly, the rate constant with which the complex forms – was determined as 180000 M⁻¹ s⁻¹. In experiment [2], the Kd was 16.3 nM, the Response was 0.88, the off-rate (koff) worked out at 0.00333 s⁻¹ and the association rate constant (kon) was 204000 M⁻¹ s⁻¹.

B2: CD3 × CD33-BspAb125 (bispecific antibody)
chain 1: not shown
chain 2: EVQLVQSGAEVKKPGSSVKVSCKASGYTITDSNIHWVRQAPGQSLEWIGYIYPYNGGTDYNQKFKNRATLTVDNPTNTAYMELSSLRSEDTAFYYCVNGNPWLAYWGQGTLVTVSSASTKGPSVFPLAPSSKSTSGGTAALGCLVKDYFPEPVTVSWNSGALTSGVHTFPAVLQSSGLYSLSSVVTVPSSSLGTQTYICNVNHKPSNTKVDKRVEPKSCDKTHTCPPCPAPEFEGGPSVFLFPPKPKDTLMISRTPEVTCVVVDVSHEDPEVKFNWYVDGVEVHNAKTKPREEQYNSTYRVVSVLTVLHQDWLNGKEYKCKVSNKALPASIEKTISKAKGQPREPQVCTLPPSREEMTKNQVSLSCAVKGFYPSDIAVEWESNGQPENNYKTTPPVLDSDGSFFLVSKLTVDKSRWQQGNVFSCSVMHEALHNRFTQKSLSLSPGK
chain 3: DIQLTQSPSTLSASVGDRVTITCRASESLDNYGIRFLTWFQQKPGKAPKLLMYAASNQGSGVPSRFSGSGSGTEFTLTISSLQPDDFATYYCQQTKEVPWSFGQGTKVEVKRTVAAPSVFIFPPSDEQLKSGTASVVCLLNNFYPREAKVQWKVDNALQSGNSQESVTEQDSKDSTYSLSSTLTLSKADYEKHKVYACEVTHQGLSSPVTKSFNRGEC
Turning to B2, the “% Positive” value in experiment [3] is 42.2%; in experiment [4], 95.4%. In addition, the gMFI in experiment [3] worked out at 6020 gMFI; in experiment [4], 28700 gMFI; in experiment [5], 3680 gMFI; in experiment [6], 13700 gMFI. The “Jurkat WT/KO (Fold)” value was found to be 1.5 fold in experiment [7] and 5.3 fold in experiment [8].

B3: CD3 × CD33-BspAb69 (bispecific antibody)
chain 1: EVQLVESGGGLVKPGGSLRLSCAASGFTFSYYSMNWVRQAPGKCLEWVSSISRSTTYIYYADSVKGRFTISRDNAKNSLYLQMNSLRAEDTAVYYCARDGKGAIFLDYWGQGTLVTVSSGGGGSGGGGSGGGGSGGGGSSYELTQPPSVSVSPGQTARITCSGDALPKKYAYWYQQKSGQAPVLVIYEDSKRPSGIPERFSGSSSGTMATLTISGAQVEDEADYYCYSTDSSGNHRVFGCGTKLTVLDKTHTCPPCPAPEFEGGPSVFLFPPKPKDTLMISRTPEVTCVVVDVSHEDPEVKFNWYVDGVEVHNAKTKPREEQYNSTYRVVSVLTVLHQDWLNGKEYKCKVSNKALPASIEKTISKAKGQPREPQVYTLPPCREEMTKNQVSLWCLVKGFYPSDIAVEWESNGQPENNYKTTPPVLDSDGSFFLYSKLTVDKSRWQQGNVFSCSVMHEALHNHYTQKSLSLSPGK
chain 2: EVQLVQSGAEVKKPGSSVKVSCKASGYTITDSNIHWVRQAPGQSLEWIGYIYPYNGGTDYNQKFKNRATLTVDNPTNTAYMELSSLRSEDTAFYYCVNGNPWLAYWGQGTLVTVSSASTKGPSVFPLAPSSKSTSGGTAALGCLVKDYFPEPVTVSWNSGALTSGVHTFPAVLQSSGLYSLSSVVTVPSSSLGTQTYICNVNHKPSNTKVDKRVEPKSCDKTHTCPPCPAPEFEGGPSVFLFPPKPKDTLMISRTPEVTCVVVDVSHEDPEVKFNWYVDGVEVHNAKTKPREEQYNSTYRVVSVLTVLHQDWLNGKEYKCKVSNKALPASIEKTISKAKGQPREPQVCTLPPSREEMTKNQVSLSCAVKGFYPSDIAVEWESNGQPENNYKTTPPVLDSDGSFFLVSKLTVDKSRWQQGNVFSCSVMHEALHNRFTQKSLSLSPGK
chain 3: DIQLTQSPSTLSASVGDRVTITCRASESLDNYGIRFLTWFQQKPGKAPKLLMYAASNQGSGVPSRFSGSGSGTEFTLTISSLQPDDFATYYCQQTKEVPWSFGQGTKVEVKRTVAAPSVFIFPPSDEQLKSGTASVVCLLNNFYPREAKVQWKVDNALQSGNSQESVTEQDSKDSTYSLSSTLTLSKADYEKHKVYACEVTHQGLSSPVTKSFNRGEC
As to B3, the “% Positive” value was found to be 99.7% in experiment [3] and 99.8% in experiment [4]. Moreover, the gMFI in experiment [3] was determined as 95300 gMFI; in experiment [4] it was 281000 gMFI; in experiment [5], 16500 gMFI; in experiment [6], 25800 gMFI. In addition, the “Jurkat WT/KO (Fold)” value worked out at 6.3 fold in experiment [7] and 8.7 fold in experiment [8].

B4: CD3 × CD33-BspAb68 (bispecific antibody)
scFv-Fc: EVQLVESGGGLVKPGGSLRLSCSASGFTFSTYTMNWVRQAPGKCLEWVSSISKSSSYIYYTDSVKGRFTISRDNAKNSLYLQMNSLRAEDTAVYYCARERRTLAFDIWGQGTMVTVSSGGGGSGGGGSGGGGSGGGGSNFMLTQPHSVSESPGKTVTISCTRSSGSIASNYVQWYQQRPGSSPTTVIYEDNQRSSGVPDRFSGSIDSSSNSASLTISGLKTEDEADYYCQSYDRSNRVFGCGTKLTVLGGGGSDKTHTCPPCPAPEFEGGPSVFLFPPKPKDTLMISRTPEVTCVVVDVSHEDPEVKFNWYVDGVEVHNAKTKPREEQYNSTYRVVSVLTVLHQDWLNGKEYKCKVSNKALPASIEKTISKAKGQPREPQVYTLPPCREEMTKNQVSLWCLVKGFYPSDIAVEWESNGQPENNYKTTPPVLDSDGSFFLYSKLTVDKSRWQQGNVFSCSVMHEALHNHYTQKSLSLSPGK
heavy: EVQLVQSGAEVKKPGSSVKVSCKASGYTITDSNIHWVRQAPGQSLEWIGYIYPYNGGTDYNQKFKNRATLTVDNPTNTAYMELSSLRSEDTAFYYCVNGNPWLAYWGQGTLVTVSSASTKGPSVFPLAPSSKSTSGGTAALGCLVKDYFPEPVTVSWNSGALTSGVHTFPAVLQSSGLYSLSSVVTVPSSSLGTQTYICNVNHKPSNTKVDKRVEPKSCDKTHTCPPCPAPEFEGGPSVFLFPPKPKDTLMISRTPEVTCVVVDVSHEDPEVKFNWYVDGVEVHNAKTKPREEQYNSTYRVVSVLTVLHQDWLNGKEYKCKVSNKALPASIEKTISKAKGQPREPQVCTLPPSREEMTKNQVSLSCAVKGFYPSDIAVEWESNGQPENNYKTTPPVLDSDGSFFLVSKLTVDKSRWQQGNVFSCSVMHEALHNRFTQKSLSLSPGK
light: DIQLTQSPSTLSASVGDRVTITCRASESLDNYGIRFLTWFQQKPGKAPKLLMYAASNQGSGVPSRFSGSGSGTEFTLTISSLQPDDFATYYCQQTKEVPWSFGQGTKVEVKRTVAAPSVFIFPPSDEQLKSGTASVVCLLNNFYPREAKVQWKVDNALQSGNSQESVTEQDSKDSTYSLSSTLTLSKADYEKHKVYACEVTHQGLSSPVTKSFNRGEC
notes: KiH heterodimer
As for B4, the “% Positive” value in experiment [3] was 100%; in experiment [4], 99.9%. Further, the gMFI in experiment [3] was found to be 539000 gMFI; in experiment [4], 601000 gMFI; in experiment [5], 58000 gMFI; in experiment [6] it was 63600 gMFI. The “Jurkat WT/KO (Fold)” value was 12.9 fold in experiment [7] and 13.6 fold in experiment [8].

B5: ABL-CD3-43 (antibody, V domains shown)
VH: EVQLVQSGAEVKKPGESLKISCKGSEYSFTTYWIAWVRQMPGKGLEWMGIIYPGDSDTTYSPSFQGQVTISADKSISIAFLQWSSLKASDTAMYYCARQGELDAFDIWGQGTMVTVSS
VL: QSALTQPASVSGSPGQSITISCTGTSSDVGSYNLVSWYQQHPGKAPKLMIYEDIRRPSGVSNRFSASKSGDTASLTISGLQAEDEADYYCCSYAGSTTFAIFGGGTKLTVL
notes: as for B1
As for B5, in experiment [1], the equilibrium dissociation constant (Kd) amounted to 6.2 nM, the Response is 0.62, the koff was 0.000754 s⁻¹ and the kon was 122000 M⁻¹ s⁻¹. In experiment [2], the Kd came to 6.94 nM, the Response amounted to 0.62, the koff turned out to be 0.00104 s⁻¹ and the kon came out at 150000 M⁻¹ s⁻¹.
